Test results reported in PMC4452782.

Experiments:
[1] = biological target: GEC1/GABARAPL1 (GL1) (human (endogenous in MDA-MB-436 and MCF-7)) (UniProt Q9H0R8); assay: proximity ligation; P-LISA (Duolink In Situ Detection Reagents Red) on MDA-MB-436 cells fixed with 4% paraformaldehyde and permeabilised with cold methanol; endogenous proteins; mouse anti-SQSTM1 or anti-NIX with rabbit anti-LC3B or anti-GL1; dots per cell counted with BlobFinder; untreated cells, also after Rapa (10 uM, 5 h), Rot (50 uM, 24 h) or CCCP (100 uM, 24 h)
Chain of GEC1/GABARAPL1 (GL1) (human (endogenous in MDA-MB-436 and MCF-7)) (Q9H0R8 whole entry): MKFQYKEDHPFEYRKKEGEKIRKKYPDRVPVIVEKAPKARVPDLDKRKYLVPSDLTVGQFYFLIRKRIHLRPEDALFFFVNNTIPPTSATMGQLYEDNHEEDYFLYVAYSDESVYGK

[2] = biological target: LC3B (human (endogenous in MDA-MB-436)) (UniProt Q9GZQ8); assay: as above

Chain of NIX/BNIP3L, O60238 1-219 (natural protein; other documents disagree on this pair) (O60238 whole entry): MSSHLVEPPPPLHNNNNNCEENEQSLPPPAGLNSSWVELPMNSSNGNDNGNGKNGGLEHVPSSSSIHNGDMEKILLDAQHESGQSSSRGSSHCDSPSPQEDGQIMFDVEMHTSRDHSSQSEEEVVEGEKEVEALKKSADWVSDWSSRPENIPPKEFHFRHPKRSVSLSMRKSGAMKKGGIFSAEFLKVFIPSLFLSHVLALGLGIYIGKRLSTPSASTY

P-LISA dots per cell [1]: 11.6 dots/cell | P-LISA dots per cell [2]: 18.9 dots/cell
Substance: NIX/BNIP3L, O60238 1-219 (natural protein; other documents disagree on this pair)
